According to patent publication US20090214583A1 (GOVERNMENT OF THE UNITED STATES OF AMERICA AS REPRESENTED …, published 2009):

Target: HLA-DRβ1*13 (human)
Assay: cell-based or functional assay

KQIINMWQEIGKAMYA [Peptide 53]
proliferation of KT9 cells: ≤ 2 fold
